# Patent US8703913B2, “Sensor” (Medical Research Council, priority 2008, dated 2014)
# Experiment: Screening mutant/fluorophore combinations for a fluorescence response to ADP
# Settings: ParM mutant/fluorophore combination
row,Molecule,"Fluorescence change, ratio of the intensity in presence of 1 mM ADP to that in the absence of ADP"
1,"Acrylodan-ParM (WT): wild-type ParM labeled with acrylodan (conjugate, UniProt P11904 1-320, looked up, acrylodan label) Plasmid segregation protein …: MLVFIDDGSTNIKLQWQESDGTIKQHISPNSFKREWAVSFGDKKVFNYTLNGEQYSFDPISPDAVVTTNIAWQYSDVNVVAVHHALLTSGLPVSEVDIVCTLPLTEYYDRNNQPNTENIERKKANFRKKITLNGGDTFTIKDVKVMPESIPAGYEVLQELDELDSLLIIDLGGTTLDISQVMGKLSGISKIYGDSSLGVSLVTSAVKDALSLARTKGSSYLADDIIIHRKDNNYLKQRINDENKISIVTEAMNEALRKLEQRVLNTLNEFSGYTHVMVIGGGAELICDAVKKHTQIRDERFFKTNNSQYDLVNGMYLIGN",0.59
2,"MDCC-ParM (S204C): ParM S204C/C287A labeled with MDCC (conjugate, UniProt P11904 1-320, looked up, variant S204C C287A, MDCC label) Plasmid segregation protein …: MLVFIDDGSTNIKLQWQESDGTIKQHISPNSFKREWAVSFGDKKVFNYTLNGEQYSFDPISPDAVVTTNIAWQYSDVNVVAVHHALLTSGLPVSEVDIVCTLPLTEYYDRNNQPNTENIERKKANFRKKITLNGGDTFTIKDVKVMPESIPAGYEVLQELDELDSLLIIDLGGTTLDISQVMGKLSGISKIYGDSSLGVSLVTCAVKDALSLARTKGSSYLADDIIIHRKDNNYLKQRINDENKISIVTEAMNEALRKLEQRVLNTLNEFSGYTHVMVIGGGAELIADAVKKHTQIRDERFFKTNNSQYDLVNGMYLIGN",0.68
3,"MPrCC-ParM (T215C): ParM T215C/C287A labeled with MPrCC (conjugate, UniProt P11904 1-320, looked up, variant T215C C287A, MPrCC label) Plasmid segregation protein …: MLVFIDDGSTNIKLQWQESDGTIKQHISPNSFKREWAVSFGDKKVFNYTLNGEQYSFDPISPDAVVTTNIAWQYSDVNVVAVHHALLTSGLPVSEVDIVCTLPLTEYYDRNNQPNTENIERKKANFRKKITLNGGDTFTIKDVKVMPESIPAGYEVLQELDELDSLLIIDLGGTTLDISQVMGKLSGISKIYGDSSLGVSLVTSAVKDALSLARCKGSSYLADDIIIHRKDNNYLKQRINDENKISIVTEAMNEALRKLEQRVLNTLNEFSGYTHVMVIGGGAELIADAVKKHTQIRDERFFKTNNSQYDLVNGMYLIGN",0.78
4,"MDCC-ParM (D63C): ParM D63C/C287A labeled with MDCC (conjugate, UniProt P11904 1-320, looked up, variant D63C C287A, MDCC label) Plasmid segregation protein …: MLVFIDDGSTNIKLQWQESDGTIKQHISPNSFKREWAVSFGDKKVFNYTLNGEQYSFDPISPCAVVTTNIAWQYSDVNVVAVHHALLTSGLPVSEVDIVCTLPLTEYYDRNNQPNTENIERKKANFRKKITLNGGDTFTIKDVKVMPESIPAGYEVLQELDELDSLLIIDLGGTTLDISQVMGKLSGISKIYGDSSLGVSLVTSAVKDALSLARTKGSSYLADDIIIHRKDNNYLKQRINDENKISIVTEAMNEALRKLEQRVLNTLNEFSGYTHVMVIGGGAELIADAVKKHTQIRDERFFKTNNSQYDLVNGMYLIGN",0.48
5,"MPrCC-ParM (I27C): ParM I27C/C287A labeled with MPrCC (conjugate, UniProt P11904 1-320, looked up, variant I27C C287A, MPrCC label) Plasmid segregation protein …: MLVFIDDGSTNIKLQWQESDGTIKQHCSPNSFKREWAVSFGDKKVFNYTLNGEQYSFDPISPDAVVTTNIAWQYSDVNVVAVHHALLTSGLPVSEVDIVCTLPLTEYYDRNNQPNTENIERKKANFRKKITLNGGDTFTIKDVKVMPESIPAGYEVLQELDELDSLLIIDLGGTTLDISQVMGKLSGISKIYGDSSLGVSLVTSAVKDALSLARTKGSSYLADDIIIHRKDNNYLKQRINDENKISIVTEAMNEALRKLEQRVLNTLNEFSGYTHVMVIGGGAELIADAVKKHTQIRDERFFKTNNSQYDLVNGMYLIGN",1.1
6,"MDCC-ParM (D58C): ParM D58C/C287A labeled with MDCC (conjugate, UniProt P11904 1-320, looked up, variant D58C C287A, MDCC label) Plasmid segregation protein …: MLVFIDDGSTNIKLQWQESDGTIKQHISPNSFKREWAVSFGDKKVFNYTLNGEQYSFCPISPDAVVTTNIAWQYSDVNVVAVHHALLTSGLPVSEVDIVCTLPLTEYYDRNNQPNTENIERKKANFRKKITLNGGDTFTIKDVKVMPESIPAGYEVLQELDELDSLLIIDLGGTTLDISQVMGKLSGISKIYGDSSLGVSLVTSAVKDALSLARTKGSSYLADDIIIHRKDNNYLKQRINDENKISIVTEAMNEALRKLEQRVLNTLNEFSGYTHVMVIGGGAELIADAVKKHTQIRDERFFKTNNSQYDLVNGMYLIGN",0.82
7,"IDCC-ParM (WT): wild-type ParM labeled with IDCC (conjugate, UniProt P11904 1-320, looked up, IDCC label) Plasmid segregation protein …: MLVFIDDGSTNIKLQWQESDGTIKQHISPNSFKREWAVSFGDKKVFNYTLNGEQYSFDPISPDAVVTTNIAWQYSDVNVVAVHHALLTSGLPVSEVDIVCTLPLTEYYDRNNQPNTENIERKKANFRKKITLNGGDTFTIKDVKVMPESIPAGYEVLQELDELDSLLIIDLGGTTLDISQVMGKLSGISKIYGDSSLGVSLVTSAVKDALSLARTKGSSYLADDIIIHRKDNNYLKQRINDENKISIVTEAMNEALRKLEQRVLNTLNEFSGYTHVMVIGGGAELICDAVKKHTQIRDERFFKTNNSQYDLVNGMYLIGN",0.34
8,"MDCC-ParM (T215C): ParM T215C/C287A labeled with MDCC (conjugate, UniProt P11904 1-320, looked up, variant T215C C287A, MDCC label) Plasmid segregation protein …: MLVFIDDGSTNIKLQWQESDGTIKQHISPNSFKREWAVSFGDKKVFNYTLNGEQYSFDPISPDAVVTTNIAWQYSDVNVVAVHHALLTSGLPVSEVDIVCTLPLTEYYDRNNQPNTENIERKKANFRKKITLNGGDTFTIKDVKVMPESIPAGYEVLQELDELDSLLIIDLGGTTLDISQVMGKLSGISKIYGDSSLGVSLVTSAVKDALSLARCKGSSYLADDIIIHRKDNNYLKQRINDENKISIVTEAMNEALRKLEQRVLNTLNEFSGYTHVMVIGGGAELIADAVKKHTQIRDERFFKTNNSQYDLVNGMYLIGN",0.74
9,"MDCC-ParM (WT): wild-type ParM labeled with MDCC (conjugate, UniProt P11904 1-320, looked up, MDCC label) Plasmid segregation protein …: MLVFIDDGSTNIKLQWQESDGTIKQHISPNSFKREWAVSFGDKKVFNYTLNGEQYSFDPISPDAVVTTNIAWQYSDVNVVAVHHALLTSGLPVSEVDIVCTLPLTEYYDRNNQPNTENIERKKANFRKKITLNGGDTFTIKDVKVMPESIPAGYEVLQELDELDSLLIIDLGGTTLDISQVMGKLSGISKIYGDSSLGVSLVTSAVKDALSLARTKGSSYLADDIIIHRKDNNYLKQRINDENKISIVTEAMNEALRKLEQRVLNTLNEFSGYTHVMVIGGGAELICDAVKKHTQIRDERFFKTNNSQYDLVNGMYLIGN",0.27
